Data on one molecule can be found in patent US20220228164A1, “ENGINEERED ANTIGEN PRESENTING CELLS” (Neogene Therapeutics B.V., priority 2021, published 2022).

The subject of this test is primary human B cells. Kind of test: Expansion and maintenance of BCL-6/BCL-XL/CD40L transduced primary human B cells in culture. The test is classed as cell-based. As to conditions: BCL-6/BCL-xL transduced B cells, IL-21 50 ng/mL, absence of L-cells. As for the experimental part: The activated, isolated B cells (FIG. 7A) were stably transduced with BCL-6/BCL-xL or a combination of BCL-6/BCL-XL and CD40L based protocols for retroviral transduction of primary B cells have been described in the literature (e.g. Kwakkenbos et al. Nat Med 2010) and as described in this invention (Example 10).
After 72 hours BCL-6/BCL-XL modified B cells were harvested, split and either cultured in the absence of L-cells or cultured on hCD40L expressing L cells. BCL-6/BCL-xL and CD40L transduced B cells are cultured in complete B cell medium supplemented with 50 ng/mL IL-21 in the absence of L-cells. […] CD40L expression on the B cells is measured on a flow cytometer using an antibody directed against CD154 (FIG. 7C).
B cells were isolated from healthy donor PBMC using the magnetic bead-based cell separation method from Miltenyi. […] Purity of the isolated B cells was measured by FACS using antibodies directed against CD3 and CD20. […] Expression of BCL6/BCL-xL was measured by FACS by GFP expression. […] Expression of BCL6/BCL-xL was measured by GFP expression and expression of CD40L was measured using an antibody directed against CD154, analyzed by FACS. […] Cells were split twice a week at a concentration of 0.2e6/mL cells and cell viability was analyzed. […] The total cumulative cell counts was calculated based on counts that were measured while splitting the cells. […]

B1: CD40L transgene: hCD40L transgene expressed in BCL-6/BCL-xL immortalized B cells (protein)
DNA: MIETYNQTSPRSAATGLPISMKIFMYLLTVFLITQMIGSALFAVYLHRRLDKIEDERNLHEDFVFMKTIQRCNTGERSLSLLNCEEIKSQFEGFVKDIMLNKEETKKENSFEMQKGDQNPQIAAHVISEASSKTTSVLQWAEKGYYTMSNNLVTLENGKQLTVKRQGLYYIYAQVTFCSNREASSQAPFIASLCLKSPGRFERILLRAANTHSSAKPCGQQSIHLGGVFELQPGASVFVNVTDPSQVSHGTGFTSFGLLKL
In the case of B1, the “B cell expansion without CD40L-expressing feeder cells” value is listed as “can be used as a replacement for CD40L-expressing feeder cells for expansion”.
